# Patent US20210095024A1 (Janssen / Centocor, published 2021)
# Residue numbers refer to the chain shown, from its start.
# T1: full length CEACAM1 overexpressed on HEK293T cells (human, UniProt P13688 35-526)
# T1 construct: also called CEACAM-1 expressing HEK293T cells
# T1 sequence: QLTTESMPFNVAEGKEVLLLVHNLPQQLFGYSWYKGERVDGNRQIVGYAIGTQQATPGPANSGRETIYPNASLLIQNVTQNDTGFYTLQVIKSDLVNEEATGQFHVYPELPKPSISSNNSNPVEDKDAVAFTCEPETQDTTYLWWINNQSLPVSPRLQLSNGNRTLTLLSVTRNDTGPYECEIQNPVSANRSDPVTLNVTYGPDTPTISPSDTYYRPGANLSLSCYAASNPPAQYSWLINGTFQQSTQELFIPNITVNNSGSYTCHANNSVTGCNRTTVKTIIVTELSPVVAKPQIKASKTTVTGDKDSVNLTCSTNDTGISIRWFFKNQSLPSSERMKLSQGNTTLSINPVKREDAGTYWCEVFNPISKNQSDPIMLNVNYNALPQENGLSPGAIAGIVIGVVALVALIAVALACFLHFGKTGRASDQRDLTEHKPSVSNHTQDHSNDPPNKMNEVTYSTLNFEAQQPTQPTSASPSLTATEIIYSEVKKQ
# T2: CEACAM6 overexpressed on HEK293T cells (human, UniProt P40199 35-320)
# T2 construct: also called CEACAM6 expressing HEK293T cells
# T2 sequence: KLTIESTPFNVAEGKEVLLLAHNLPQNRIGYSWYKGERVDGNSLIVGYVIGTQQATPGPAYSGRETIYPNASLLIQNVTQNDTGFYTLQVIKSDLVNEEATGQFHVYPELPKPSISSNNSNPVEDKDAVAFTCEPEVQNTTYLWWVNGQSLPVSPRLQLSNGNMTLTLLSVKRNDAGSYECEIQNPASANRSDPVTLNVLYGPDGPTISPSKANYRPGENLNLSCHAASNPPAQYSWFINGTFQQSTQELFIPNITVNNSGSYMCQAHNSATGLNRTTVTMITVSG
# T3: CEACAM5 overexpressed on HEK293T cells (human, UniProt P06731 35-685)
# T3 construct: also called CEACAM5 expressing HEK293T cells
# T3 sequence: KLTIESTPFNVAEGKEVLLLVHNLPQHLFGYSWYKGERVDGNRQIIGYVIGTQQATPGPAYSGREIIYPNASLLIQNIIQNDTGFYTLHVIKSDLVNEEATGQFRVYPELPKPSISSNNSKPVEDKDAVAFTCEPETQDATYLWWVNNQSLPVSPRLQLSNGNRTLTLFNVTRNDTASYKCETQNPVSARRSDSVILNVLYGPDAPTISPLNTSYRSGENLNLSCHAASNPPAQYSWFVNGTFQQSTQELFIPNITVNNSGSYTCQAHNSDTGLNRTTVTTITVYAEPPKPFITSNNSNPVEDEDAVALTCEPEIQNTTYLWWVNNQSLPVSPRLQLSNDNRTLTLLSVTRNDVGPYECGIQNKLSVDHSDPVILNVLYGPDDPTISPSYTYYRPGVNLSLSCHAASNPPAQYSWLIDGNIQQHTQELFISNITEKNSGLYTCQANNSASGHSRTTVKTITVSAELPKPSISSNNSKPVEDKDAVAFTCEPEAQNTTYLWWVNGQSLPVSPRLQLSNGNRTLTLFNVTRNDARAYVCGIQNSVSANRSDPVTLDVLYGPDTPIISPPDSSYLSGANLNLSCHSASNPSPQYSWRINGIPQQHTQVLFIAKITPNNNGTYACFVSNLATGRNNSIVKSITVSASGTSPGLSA
# T4: recombinant CEACAM5 (R&D Systems #4128-CM) (human, UniProt P06731 35-685)
# T4 construct: Bought protein
# T4 sequence: T3 sequence
# T5: recombinant CEACAM6 (R&D Systems #3934-CM) (human, UniProt P40199 35-320)
# T5 construct: Bought protein
# T5 sequence: T2 sequence
# B1: CCMB23.004 (antibody, V domains shown)
# VH: QLQLQESGPGLVKPSETLSLTCTVSADSISRTSYYWGWIRQPPGKGLEWIGTIYYSGSTYYNPSLKSRVTISVDTSRNHFSLTLNSVTAADTAVYYCARQIAVGAHRFDYWGQGTLVTVSS
# VL: DIQLTQSPSFLSASVGDRVTITCRASQGISSYLAWYQQKPGKAPKLLIYAASTLQSGVPSRFSGSGSGTEFTLTISSLQPEDFATYYCQQLNSYPWTFGQGTKVEIK
# notes: also called mAb 8
# B2: CCMB66.004 (antibody, V domains shown)
# VH: EVQLVQSGAEVKKPGESLKISCKGSGYSFTSYWIGWVRQMPGKGLEWMGIIYPGDSDTRYSPSFQGQVTISADKSISTAYLQWSSLKASDTAMYYCARGYPAPTVNDLDYWGQGTLVTVSS
# VL: not shown
# notes: also called mAb 12
# B3: CCMB18.004 (antibody, V domains shown)
# VH: QVQLVQSGSELKKPGASVKVSCKASGYTLTDYGMNWVRQAPGQGLQWMGWINTNTGNPTYAQGFTGRFVFSLDTSVSTAYLQISSLKTEDTAVYYCARKAIWGWFDPWGQGTLVTVSS
# VL: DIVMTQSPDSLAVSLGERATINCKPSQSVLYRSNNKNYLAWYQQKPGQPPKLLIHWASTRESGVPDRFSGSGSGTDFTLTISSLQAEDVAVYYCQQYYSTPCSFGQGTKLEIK
# notes: also called mAb 6
# B4: CCMB03.004 (antibody, V domains shown)
# VH: QVQLVQSGSELRTPGASVKVSCKASGYTFTSYGLSWVRQAPGQGLEWMGWINTNTGNPTYAQGFTGRFVFSLDTSVSTAYLQISSLKAEDTAVYYCARKGIWGPFDYWGQGTLVTVSS
# VL: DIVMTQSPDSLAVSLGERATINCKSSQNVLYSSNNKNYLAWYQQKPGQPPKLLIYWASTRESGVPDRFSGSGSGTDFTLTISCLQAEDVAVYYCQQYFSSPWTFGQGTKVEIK
# notes: also called mAb 2
# B5: CCMB04.004 (antibody, V domains shown)
# VH: B4 VH with R12K, T13K, S31N, L34V, S35N, A61V, S77T, Q82H, Y95F, Y107H
# VL: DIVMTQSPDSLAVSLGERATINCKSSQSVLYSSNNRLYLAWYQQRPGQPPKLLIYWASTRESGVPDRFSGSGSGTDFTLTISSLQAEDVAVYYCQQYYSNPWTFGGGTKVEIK
# notes: also called mAb 3
# B6: CCMB35.004 (antibody, V domains shown)
# VH: EVQLLESGGGLVQPGESLRLSCAASGLTFSDYAMNWVRQAPGKGLYWVSSISGTGGSTYYADSLKGRFTISRDNSKNTLYLQMNSLRAEDTAVYYCAKDIAVGVTAYFDHWGQGTLVTVSS
# VL: SSELTQDPAVSVALGQTVRITCQGDSLRTYSASWYQQKPGQAPVLVIYGKNNRPSGIPDRFSGSSSGNTASLTITGAQAEDEADYYCNSRDSRGNLLVVFGGGTKLTVL
# notes: also called mAb 9
# B7: CCMB42.004 (antibody, V domains shown)
# VH: EVQLLESGGGLVQPGGSLRLSCAASGFTFNTYGMSWARQAPGKGLEWVSTISGSGDNTYYADSVKGRFTISRDNSKNTLYLQINSLRAEDTAVYYCAKGGLLWFGELPYPFDYWGQGTLVTVSS
# VL: QSALTQPASVSGSPGQSITISCTGTSSDVGGYNYVSWYQQHPGKAPKLMIYDVSNRPSGVSNRFSGSKSDNTASLTISGLQAEDEADYYCSSYISTSTLYVFGIGTKVTVL
# notes: also called mAb 10
# B8: CCMB61.004 (antibody, V domains shown)
# VH: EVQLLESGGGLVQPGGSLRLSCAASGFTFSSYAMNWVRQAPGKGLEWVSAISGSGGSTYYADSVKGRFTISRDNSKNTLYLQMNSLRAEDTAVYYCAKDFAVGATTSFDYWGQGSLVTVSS
# VL: SSELTQDPAVSVALGQTVRITCQGDSLRSYYVSWYQQKPGQAPTLVIYGKNNRPSGIPDRFSGSSSGNTPSLTITGAQAEDEADYYCNSRDSSNHLVVFGGRTKLTVL
# notes: also called mAb 11
# B9: CCMB02.004 (antibody, V domains shown)
# VH: EVQLLESGGGLVQPGGSLRLSCAASGFTFINYAMNWVRLTPGKGLEWVSVISGSGSGTYYADSVKGRFTVSRDNSKNTLYLQMNSLRVEDTAIYYCASPPPMVRGVIITIGNYWGQGALVTVSS
# VL: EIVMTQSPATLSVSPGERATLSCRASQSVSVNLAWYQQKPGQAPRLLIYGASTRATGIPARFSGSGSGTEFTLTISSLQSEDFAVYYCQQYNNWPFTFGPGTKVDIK
# notes: also called mAb 1
# B10: CCMB07.004 (antibody, V domains shown)
# VH: B9 VH with I30T, T40A
# VL: EIVMTQSPATLSVSPGERATLSCRASQSVSVNLAWYQQKPGQAPRLLIYGASTRATSIPTRFSGSGSGTEFTLTISSLQSEDFAVYYCQQYNNWPFTFGPGTKVEIK
# notes: also called mAb 4
# B11: CCMB20.004 (antibody, V domains shown)
# VH: EVQLLESGGGLVQPGESLRLSCAASGFTFNNYAMTWVRQAPGKGLDWVSSISGTSANTYYADAVKGRFTISRDNSMTTLYLQMNSLRAEDTAVYYCAKPILTLFGELPLDYWGQGTLVTVSS
# VL: B10 VL with V31S, P40T, S57A, I58F, T60A, F96L, P100G
# notes: also called mAb 7
# B12: CCMB09.004 (antibody, V domains shown)
# VH: QVQLQESGPGLVKPSQTLSLTCTVTGDSIRSGGHYWSWIRQHPGKGLEWIGNIYYSGSTHYNPSLKSRLTISVDTSKNQFSLKVSSVTAADTAVYYCARGRLLWFGEPQDFQHWGQGTLVTVSS
# VL: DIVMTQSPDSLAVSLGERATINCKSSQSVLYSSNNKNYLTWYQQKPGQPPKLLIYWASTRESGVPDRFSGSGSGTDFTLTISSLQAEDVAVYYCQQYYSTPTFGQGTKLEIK
# notes: also called mAb 5
# Tests used:
# [1] = target: T1, full length CEACAM1 overexpressed on …; assay: flow cytometry on HEK293T cells overexpressing CEACAM1
# From the text: CEACAM1 overexpressing cells were then subcloned and sorted for purified populations of CEACAM1 positive cells, using standard techniques (FIG. 3). These cells were then used to generate binding curves by flow cytometry (FIG. 4).
# [2] = target: T2, CEACAM6 overexpressed on HEK293T cells; assay: flow cytometry on HEK293T cells overexpressing CEACAM6
# [3] = target: T3, CEACAM5 overexpressed on HEK293T cells; assay: flow cytometry on HEK293T cells overexpressing CEACAM5
# [4] = target: T4, recombinant CEACAM5 (R&D Systems …); assay: ELISA, plate-coated recombinant CEACAM5
# Description: (§1) Plates were coated with 50 μl of 1 μg/ml of CEACAM1 (#2244-CM, R&D Systems) overnight at 4° C. The next day, in 16 h, plates were blocked with 200 μl 0.4% bovine serum albumin (BSA) (Sigma, A9647) in PBS for 1 hr at room temperature. Plates were washed once with 300 μl of 0.02% Tween-20 in PBS on a Biotek plate washer. 1/2 log dilutions of CEACAM mAbs starting from 10 μg/ml to 0.0001 ug/ml in 0.4% BSA, or PBS only, were plated for each antibody. 50 μl of each dilution were added to coated plates. Plates were incubated at room temp for approx 30 min. Plates were then washed 3 times with 300 μl of 0.02% Tween-20 in PBS using a Biotek plate washer. […] Plates were incubated at room temp for approximately 30 min. Plates were then washed 3 times with 300 ul of PBS/0.02% Tween-20 on a Biotek plate washer. 50 μl of 3,3′,5,5′-Tetramethylbenzidine (TMB, Sigma T0440) were added, allowed for color development, followed by adding 50 ul of 4N H₂SO₄. Plates were analyzed at 450 nm using EnVision Microplate Reader (PerkinElmer). Isotype control (CNT08939 antibody, specific to RSV virus, having the human IgG2 sigma backbone) was plated on last 3 plates at a concentration 10 μg/ml. Absorbance at 450 nm (FIG. 2) was analyzed using XY scatter plots and non-linear fit curves were generated after log transformation, and EC50 values were calculated, using GraphPad Prism (GraphPad Software, San Diego, Calif.). For several antibodies the EC50 could not be calculated using GraphPad Prism due to poor curve fit; in these cases the EC50 values were visually estimated at the midpoint of the available curve. EC50 values for binding to recombinant CEACAM1 are represented in Table 1.
# (§2) 3.1 Binding to recombinant CEACAM5 and CEACAM6. Cross-screening for specificity of purified phage and hybridoma antibodies to recombinant CEACAM5 (R&D Systems #4128-CM) and CEACAM6 (R&D Systems #3934-CM) was performed using ELISA, according to the protocol described in Example 2. Binding curves for binding of mAbs to CEACAM5 are shown on FIG. 5a, and to CEACAM6 on FIG. 5b.
# [5] = target: T5, recombinant CEACAM6 (R&D Systems …); assay: ELISA, plate-coated recombinant CEACAM6
# Description: as §1, §2
binder,measurement,setting,value
B1,EC50,[1],0.00419 µg/mL
same,binding result,[2],no binding
same,binding result,[3],no binding
B2,binding result,[2],no binding
same,EC50,[4],1690 µg/mL
B3,EC50,[2],0.0118 µg/mL
same,EC50,[4],4.32 µg/mL
same,EC50,[5],6.05 µg/mL
B4,EC50,[2],0.00515 µg/mL
same,EC50,[4],16.4 µg/mL
same,EC50,[5],5 µg/mL
B5,EC50,[2],0.0109 µg/mL
same,EC50,[4],6.46 µg/mL
same,EC50,[5],5.57 µg/mL
B6,EC50,[1],0.0275 µg/mL
same,binding result,[2],no binding
same,binding result,[3],no binding
B7,binding result,[2],no binding
same,EC50,[4],1.14 µg/mL
B8,EC50,[1],0.0353 µg/mL
same,EC50,[5],1240 µg/mL
same,binding result,[3],no binding
B9,binding result,[2],no binding
same,EC50,[4],50 µg/mL
B10,binding result,[2],no binding
same,EC50,[4],9.77 µg/mL
B11,binding result,[2],no binding
same,EC50,[4],4.27 µg/mL
B12,EC50,[2],0.0158 µg/mL
same,EC50,[4],4.46 µg/mL
same,EC50,[5],5.13 µg/mL
